This assay concerns the target SARS-CoV-2 main protease (M^pro), tag-free, native N and C termini (SARS-CoV-2).

* marks the point of attachment. Dnp = O=[N+]([O-])c1ccc(*)c([N+](=O)[O-])c1

For {MCA}-AVLQSGFRK(Dnp)K-NH2 [FRET substrate MCA-AVLQSGFR-Lys(Dnp)-Lys-NH2], the Michaelis constant (Km) of the FRET-based enzymatic assay; M^pro 100 nM, substrate at various concentrations, Lineweaver-Burk plot came out at 1.41 µM.

These data come from PMC7923362.
